Measured values as given in patent US20250277059A1, “ANTIBODY USED TO TREAT CORONAVIRUS INFECTION” (priority 2022, published 2025).

Tests used:
TMPRSS-11E = target: T1, TMPRSS-11E (human, UniProt Q9UL52); test: ELISA, Strep-tagged protein on streptavidin plate
T1 sequence (single chain, looked up): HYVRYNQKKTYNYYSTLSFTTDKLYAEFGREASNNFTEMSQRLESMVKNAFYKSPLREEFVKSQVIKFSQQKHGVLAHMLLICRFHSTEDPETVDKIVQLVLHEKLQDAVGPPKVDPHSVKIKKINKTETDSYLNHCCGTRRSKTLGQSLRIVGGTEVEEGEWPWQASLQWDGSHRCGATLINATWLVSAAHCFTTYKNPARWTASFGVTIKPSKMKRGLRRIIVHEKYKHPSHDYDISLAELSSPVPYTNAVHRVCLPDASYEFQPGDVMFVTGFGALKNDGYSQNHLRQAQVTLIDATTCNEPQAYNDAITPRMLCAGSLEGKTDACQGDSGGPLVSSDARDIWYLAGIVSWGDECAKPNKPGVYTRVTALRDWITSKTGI

TMPRSS-11F = TMPRSS-11F (human, UniProt Q6ZWK6); test: ELISA, Strep-tagged protein on streptavidin plate
TMPRSS-13 = target: T2, TMPRSS-13 (human, UniProt Q9BYE2); test: ELISA, Strep-tagged protein on streptavidin plate
T2 sequence (single chain, looked up): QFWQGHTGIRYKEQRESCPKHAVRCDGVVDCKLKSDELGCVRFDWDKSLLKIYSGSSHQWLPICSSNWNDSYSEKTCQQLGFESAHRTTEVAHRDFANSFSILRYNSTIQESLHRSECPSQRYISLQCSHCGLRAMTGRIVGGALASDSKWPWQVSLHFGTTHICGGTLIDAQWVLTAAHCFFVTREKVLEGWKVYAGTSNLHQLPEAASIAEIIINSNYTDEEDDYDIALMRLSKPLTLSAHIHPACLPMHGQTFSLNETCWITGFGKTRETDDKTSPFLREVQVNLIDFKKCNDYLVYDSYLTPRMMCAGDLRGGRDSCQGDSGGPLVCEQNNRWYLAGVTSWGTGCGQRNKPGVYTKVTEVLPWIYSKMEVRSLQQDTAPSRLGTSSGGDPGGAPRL

TMPRSS-11D = target: T3, TMPRSS-11D (human, UniProt O60235); test: ELISA, Strep-tagged protein on streptavidin plate
T3 sequence (single chain, looked up): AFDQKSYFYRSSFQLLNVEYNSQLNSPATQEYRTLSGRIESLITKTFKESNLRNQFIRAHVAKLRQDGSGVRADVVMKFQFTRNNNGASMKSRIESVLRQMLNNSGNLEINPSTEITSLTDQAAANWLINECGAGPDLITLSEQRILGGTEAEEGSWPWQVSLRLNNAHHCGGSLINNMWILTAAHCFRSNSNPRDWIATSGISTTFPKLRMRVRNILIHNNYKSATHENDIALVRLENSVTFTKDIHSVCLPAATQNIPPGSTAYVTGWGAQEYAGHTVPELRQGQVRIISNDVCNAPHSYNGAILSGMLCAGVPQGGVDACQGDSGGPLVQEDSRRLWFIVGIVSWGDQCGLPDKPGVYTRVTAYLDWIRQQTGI

[1] = target: T4, Human TMPRSS2 expressed on cells (human, UniProt O15393 1-492); test: cell-based or functional assay
[2] = target: T5, Human TMPRSS2 recombinant protein, extracellular region (N-terminal His tag, C-terminal Strep-tag II) (human, UniProt O15393 106-492); test: SPR (BIAcore); rounded repeat of Table 1
T5 construct: also called Human TMPRSS2 recombinant proteins; extracellular region of human TMPRSS2

[3] = target: T4, Human TMPRSS2 expressed on cells; test: cell-based or functional assay; remark: listed apart in the source
[4] = target: T5, Human TMPRSS2 recombinant protein, …; test: SPR (BIAcore), captured mAb, soluble human TMPRSS2 extracellular region
[5] = target: Mouse TMPRSS2 expressed on cells (mouse, UniProt Q9JIQ8 1-490); test: flow cytometry, Daudi transfectant
[6] = target: T4, Human TMPRSS2 expressed on cells; test: flow cytometry, Daudi transfectant
[7] = target: Cynomolgus monkey TMPRSS2 expressed on cells (cynomolgus monkey); test: flow cytometry, Daudi transfectant
[8] = target: T5, Human TMPRSS2 recombinant protein, …; test: SPR (BIACore)
[9] = target: T4, Human TMPRSS2 expressed on cells
human TMPRSS2 [10] = target: T6, human TMPRSS2 (Homo sapiens, UniProt O15393); test: Competitive inhibition between anti-TMPRSS2 mAbs (flow cytometry); type: binding; conditions: FIG. 3C
Target sequence in this assay (O15393 whole entry): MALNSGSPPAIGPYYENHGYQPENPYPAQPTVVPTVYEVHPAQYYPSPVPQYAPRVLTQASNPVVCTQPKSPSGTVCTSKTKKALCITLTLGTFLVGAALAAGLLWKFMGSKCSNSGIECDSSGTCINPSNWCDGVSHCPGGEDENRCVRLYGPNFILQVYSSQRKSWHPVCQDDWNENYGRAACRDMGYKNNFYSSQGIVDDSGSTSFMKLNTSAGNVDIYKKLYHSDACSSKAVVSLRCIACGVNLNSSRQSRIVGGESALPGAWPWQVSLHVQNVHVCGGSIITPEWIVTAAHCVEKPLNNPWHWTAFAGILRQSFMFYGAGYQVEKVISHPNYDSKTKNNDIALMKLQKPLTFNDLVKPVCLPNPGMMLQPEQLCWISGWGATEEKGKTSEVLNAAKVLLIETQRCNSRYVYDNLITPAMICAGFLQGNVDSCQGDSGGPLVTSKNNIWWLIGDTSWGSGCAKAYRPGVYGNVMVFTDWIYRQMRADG

human TMPRSS2 [11] = target: T6, human TMPRSS2; test: BIACore binding assay of anti-TMPRSS2 antibodies; conditions: Table 1, mouse mAbs, 25° C.
Target sequence in this assay (O15393 106-492 limits assumed): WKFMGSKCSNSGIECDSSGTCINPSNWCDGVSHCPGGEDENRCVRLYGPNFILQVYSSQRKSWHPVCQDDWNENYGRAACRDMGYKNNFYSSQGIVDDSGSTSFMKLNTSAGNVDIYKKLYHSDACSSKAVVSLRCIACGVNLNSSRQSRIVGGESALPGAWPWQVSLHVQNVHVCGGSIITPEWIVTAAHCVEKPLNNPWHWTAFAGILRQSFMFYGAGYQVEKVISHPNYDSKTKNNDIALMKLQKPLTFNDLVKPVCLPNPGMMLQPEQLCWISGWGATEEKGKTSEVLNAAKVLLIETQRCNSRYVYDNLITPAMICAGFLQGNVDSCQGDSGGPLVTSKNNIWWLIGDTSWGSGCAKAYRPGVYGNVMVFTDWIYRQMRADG

[12] = system: TMPRSS2 of non-human animal species; type: binding; conditions: Table 3; species whose TMPRSS2 is bound

T4 sequence (O15393 whole entry): as the sequence (O15393 whole entry) above
TMPRSS-11F, sequence (Q6ZWK6 54-438 limits assumed): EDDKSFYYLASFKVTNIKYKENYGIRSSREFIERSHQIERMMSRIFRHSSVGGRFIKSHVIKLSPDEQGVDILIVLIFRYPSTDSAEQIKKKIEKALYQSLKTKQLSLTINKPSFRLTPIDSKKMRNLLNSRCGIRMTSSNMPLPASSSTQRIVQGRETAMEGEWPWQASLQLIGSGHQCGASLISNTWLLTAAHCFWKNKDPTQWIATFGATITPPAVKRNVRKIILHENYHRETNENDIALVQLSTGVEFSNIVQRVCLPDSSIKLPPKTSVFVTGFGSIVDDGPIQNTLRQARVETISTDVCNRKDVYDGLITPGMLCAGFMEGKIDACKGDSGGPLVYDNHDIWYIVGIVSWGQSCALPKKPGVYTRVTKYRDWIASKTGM
T5 sequence (O15393 other isoform, or with tags, fused parts or gaps limits assumed): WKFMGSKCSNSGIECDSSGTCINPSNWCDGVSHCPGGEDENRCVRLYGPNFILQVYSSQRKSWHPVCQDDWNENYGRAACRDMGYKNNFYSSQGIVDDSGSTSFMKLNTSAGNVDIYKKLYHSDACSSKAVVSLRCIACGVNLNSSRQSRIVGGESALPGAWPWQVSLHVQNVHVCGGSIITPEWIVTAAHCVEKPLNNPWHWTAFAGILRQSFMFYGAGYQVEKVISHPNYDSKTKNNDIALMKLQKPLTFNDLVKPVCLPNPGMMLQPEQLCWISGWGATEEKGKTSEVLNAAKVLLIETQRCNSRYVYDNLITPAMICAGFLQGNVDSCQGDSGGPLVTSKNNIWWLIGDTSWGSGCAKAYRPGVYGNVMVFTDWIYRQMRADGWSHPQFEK
Mouse TMPRSS2 expressed on cells, sequence (Q9JIQ8 whole entry): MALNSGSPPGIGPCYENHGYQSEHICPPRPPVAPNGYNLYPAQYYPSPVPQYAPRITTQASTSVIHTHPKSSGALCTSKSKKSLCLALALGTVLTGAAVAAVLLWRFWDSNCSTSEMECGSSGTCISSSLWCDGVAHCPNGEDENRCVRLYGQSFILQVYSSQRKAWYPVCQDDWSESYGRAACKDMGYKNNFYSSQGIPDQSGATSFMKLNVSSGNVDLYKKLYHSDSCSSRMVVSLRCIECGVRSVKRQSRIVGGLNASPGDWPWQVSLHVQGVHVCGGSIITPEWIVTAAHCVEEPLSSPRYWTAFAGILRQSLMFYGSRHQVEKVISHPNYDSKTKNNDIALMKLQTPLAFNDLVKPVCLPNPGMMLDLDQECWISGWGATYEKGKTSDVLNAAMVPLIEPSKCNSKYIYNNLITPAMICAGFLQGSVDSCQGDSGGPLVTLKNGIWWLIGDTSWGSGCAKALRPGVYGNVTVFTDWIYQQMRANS

B1: 2020_12 antibody (antibody, V domains shown)
VH: QVQLQQPGAELAKPGASVKLSCKASGYTFTSYWMHWVKQRPGQGLEWIGLIPPNSGSSNYNEKFKSKATLTVDKSSRTAYMQLSSLTSEDSAVYYCARWDYGSSYGYFDVWGTGTTVTVSS
VL: DIVLTQSPASLAVSLGQRATISCRASESVSTSGYSYMHWYQQKPGQPPKLLIYLASNLESGVPVRFSGSGSGTDFTLNIHPVEEEDAATYYCQHSRELPPTFGAGTKLELK
B1: no binding (tested: 10 µg/mL) (TMPRSS-11E); no binding (tested: 10 µg/mL) (TMPRSS-11F); no binding (tested: 10 µg/mL) (TMPRSS-13). For the same molecule, the binding result (TMPRSS-11D) was “no binding (tested: 10 µg/mL)”, the “IC90, First run; live SARS-CoV-2 infection of Calu-3 cells” value [1] was 0.23 µg/mL and the “IC90, Second run; live SARS-CoV-2 infection of Calu-3 cells” value [1] was 0.13 µg/mL. The Kd [2] was 2.7 nM, the “Activity: Calu-3 Inhibiton” value [3] was 66 and the Kd [4] was 2.69 nM. For the same molecule, the koff [4] was 0.00176 s⁻¹, the kon [4] was 654000 M⁻¹ s⁻¹ and the “Q2 (percent of cells GFP+ and stained)” value [5] was 48.5. The “Q2 (percent of cells GFP+ and stained)” value [6] was 99.9 and the Q2 (percent of cells GFP+ and stained) [7] was 0.88.

B2: humanized 752-1 IgG4 (S108P) prototype #4 (antibody, V domains shown)
VH: QVQLQQSGTGLARPGASVKLSCKASGYTFTSCGISWVTQRAGQGLEWIGEIYPRGGNTYYNEKFKGKATLTADKSSSSAYMELRGLTAEDSAVYFCARENGNYDPLFAYWGQGTTLTVSS
VL: DIQMTQSPSSLSASVGDRVTITCKASQDINKYIAWYQQKPGKAPKLLIHYTSTLQPGVPSRFSGSGSGTDFTFTISSLQPEDIATYYCLQYYNLWTFGGGTKVEIK
notes: also called humanized #4; hu #4
In the case of B2, the Kd [8] is reported as 2.44 nM, the koff [8] is reported as 0.00611 s⁻¹ and the kon [8] is reported as 2.5e+06 M⁻¹ s⁻¹. The “APC median at 3 µg/ml” value [9] was 1650.

B3: humanized 2228-15 IgG4 (S108P) prototype #1 (antibody, V domains shown)
VH: QVQLVQSGAEVKKPGASVKVSCKASGYTFTDYYINWVRQAPGQGLEWMGWIFPGSGSSYYNAIFKGRVTMTRDTSISTAYMELSRLRSDDTAVYYCARGDFGNFGGFFTYWGQGTLVTVSS
VL: DVVMTQSPLSLPVTLGQPASISCRASKSVSTSGYSFMHWFQQRPGQSPRRLIYLASNLESGVPDRFSGSGSGTDFTLKISRVEAEDVGVYYCQHSRELPLTFGGGTKVEIK
notes: also called humanized #1; hu #1
Molecule B3 has a Kd [8] of 12.3 nM, a koff [8] of 0.0641 s⁻¹ and a kon [8] of 5.22e+06 M⁻¹ s⁻¹. For the same molecule, the “APC median at 3 µg/ml” value [9] was 579.

B4: humanized 2228-15 IgG4 (S108P) prototype #3 (antibody, V domains shown)
VH: EIQLVQSGAEVKKPGSSVKVSCKASGYTFTDYYINWMRQAPGQGLEWIGWIFPGSGSSYYNAIFKGRATLTVDTSTNTAYMELSSLRSEDTAFYFCARGDFGNFGGFFTYWGQGTLVTVSS
VL: DVVMTQSPLSLPVTLGQPASISCRASKSVSTSGYSFMHWFQQRPGQSPRRLIYLASNLESGVPDRFSGSGSGTDFTLKISRVEAEDVGVYYCQHSRELPLTFGGGTKVEIK
notes: also called humanized #3; hu #3
Work on B4 yielded a Kd [8] of 0.938 nM, a koff [8] of 0.000774 s⁻¹ and a kon [8] of 825000 M⁻¹ s⁻¹. For the same molecule, the “APC median at 3 µg/ml” value [9] was 862.

B5: humanized 2228-15 IgG4 (S108P) prototype #4 (antibody, V domains shown)
VH: EIQLVQSGAEVKKPGSSVKVSCKASGYTFTDYYINWMRQAPGQGLEWIGWIFPGSGSSYYNAIFKGRATLTVDTSTNTAYMELSSLRSEDTAFYFCARGDFGNFGGFFTYWGQGTLVTVSS
VL: DIVMTQSPDSLAVSLGERATINCRASKSVSTSGYSFMHWYQQKPGQPPKLLIYLASNLESGVPDRFSGSGSGTDFTLTIRPLQAEDVAVYYCQHSRELPLTFGQGTKLEIK
notes: as for B2
B5 was tested, and the koff [8] was 0.0001 s⁻¹, the kon [8] was 1.44e+06 M⁻¹ s⁻¹ and the “APC median at 3 µg/ml” value [9] was 1990.

B6: 2228_15 antibody (antibody, V domains shown)
VH: QVQLQQSGPELVKPGTSVKISCKASGYTFTDYYINWVKQRPGQGLEWIGWIFPGSGSSYYNAIFKGKATLTVDTSSNTAHMSLSSLTSDDSAVYFCARGDFGNFGGFFTYWGQGTLVTVSA
VL: DVVVTQSPASLAVSLGQRATISCRASKSVSTSGYSFMHWYQQKPGQPPKLLIYLASNLESGVPARFSGSGSGTDFILNIHPVEEEDAATYYCQHSRELPLTFGAGTKLELK
B6: no binding (tested: 10 µg/mL) (TMPRSS-11E); no binding (tested: 10 µg/mL) (TMPRSS-11F); no binding (tested: 10 µg/mL) (TMPRSS-13). The binding result (TMPRSS-11D) was “no binding (tested: 10 µg/mL)”, the Kd [2] was 8.4 nM and the Kd [4] was 8.41 nM.

B7: 752_1 antibody (antibody, V domains shown)
VH: QVQLQQSGAELARPGASVKLSCKASGYTFTSCGISWVKQRTGQGLEWIGEIYPRGGNTYYNEKFKGKATLTADKSSSTAYMELRSLTSEDSAVYFCARENGNYDPLFAYWGQGTLVTVSA
VL: DIQMTQSPSSLSASLGGKVTITCKASQDINKYIAWYQHKPGKGPRLLIHYTSTLQPGIPSRFSGSGSGRDYSFSIYNLEPEDIATYYCLQYYNLWTFGGGTKLEIK
B7: no binding (tested: 10 µg/mL) (TMPRSS-11E); no binding (tested: 10 µg/mL) (TMPRSS-11F); no binding (tested: 10 µg/mL) (TMPRSS-13). B7: no binding (tested: 10 µg/mL) (TMPRSS-11D).

B8: 2114_16: mouse anti-human TMPRSS2 monoclonal antibody, IgG2c λ; VH SEQ ID NO: 106, VL SEQ ID NO: 107 (antibody, V domains shown)
VH: EVQLQQSGPELVKPGASVKISCKASGYTFTDYYMNWVKRRHGKSLEWIGNINPNNGGTSYNQKFKGKATLTVDKSSSTAYMELRSLTSEDSVVYYCAREGDLFPFAYWGQGTLVTVSA
VL: QAVVTQESALTTSPGETVTLTCRSSIGTVTTSNFANWVQEKPDHLFTGLIGASNNRAPGVPARFSGSLIGDKAALTITGAQTEDEAIYFCALWFSNHWVFGGGTKLTVL
modifications: mouse IgG2c lambda constant regions; 2114_16 VH; 2114_16 VL
For B8, the “competition with 1831_15 antibody for binding to human TMPRSS2” value (human TMPRSS2 [10]) was “weakly competed”, the “ka” value (human TMPRSS2 [11]) was 570000 M⁻¹ s⁻¹ and the “kd” value (human TMPRSS2 [11]) was 0.000591 s⁻¹.

B9: 1831_15: mouse anti-human TMPRSS2 monoclonal antibody, IgG2b κ; VH SEQ ID NO: 98, VL SEQ ID NO: 99 (antibody, V domains shown)
VH: QVQLQQPGAELVKPGASVKLSCKASGYSFTTYWMHWVRQRPGQGLEWIGIIHPNSGTTNYNEKFKSKASLTVDKSSSTAYMQLSSLTSEDSAVYYCARLLWDYFDYWGQGTTLTVSS
VL: DIVMSQSPSSLAVSAGEKVTMSCKSSQSLLNSRTRKNFLAWYQQKPGQSPKLLIYWASTRESGVPDRFTGSGSGTDFTLTISSVQAEDLAVYYCKQSYNLYTFGGGTKLEIK
modifications: mouse IgG2b kappa constant regions; 1831_15 VH; 1831_15 VL
B9 was tested, and the “ka” value (human TMPRSS2 [11]) was 563000 M⁻¹ s⁻¹, the “kd” value (human TMPRSS2 [11]) was 0.000236 s⁻¹ and the Cross-reactivity [12] was “Cynomolgus monkey”.
